For one data set, the system named is mouse choroidal explants. The experiment in a line: Choroidal explant sprouting in culture. Conditions: P5 mouse choroidal explants exposed to serum and VEGF. The format is cell-based. As to the method:
FIG. 1 is a panel with pictures, bar graphs, and graphs showing that Dand5 reduces VEGF-mediated sprouting angiogenesis in cultured endothelial cells. FIG. 1A: HUVECs grown in a fibrinogen gel were treated with VEGF to induce tube formation in the presence or absence of Dand5. […] FIG. 1B: HUVECs were plated to confluency and scratched to stimulate a wound in the presence or absence of Dand5. Scale bar, 100 μm. FIG. 1C: Quantification of tube formation in FIG. 1A n=3, *p<0.05, **p<0.01). FIG. 1E: Choroids were isolated from wild-type mice and cultured in vitro in the absence or presence of Dand5. […] FIG. 1F: Quantification of sprouting areas in choroidal sprouts (n=3, ***p<0.0001). […] FIG. 1H: HUVECs were cultured in the presence or absence of Dand5 and analyzed by immunofluorescence using antibodies against phospho-Histone 3 (PH3), a marker of cellular mitosis, and phalloidin and DAPI (nuclei). […] FIG. 1I: Quantification immunofluorescent staining of phospho-histone 3 positive cells. […] FIG. 1K: Quantification of immunofluorescent staining of cleaved caspase 3 (n=2, n.s.).
To evaluate the cellular mechanisms underlying the inhibitory effects of DAND5 on endothelial cells sprouting, we assessed the effects of DAND5 on endothelial cell migration and proliferation. […]
We exposed or not HUVECs to recombinant DAND5 and measured the concentration of free radicals using DCFDA and MitoSoxRed™. […]

A further data set deals with HUVECs. The data set is described as follows: Apoptosis of cultured endothelial cells (cleaved caspase 3). The format is cell-based, human. Conditions: HUVECs cultured for 18 hours.
The next data set deals with VEGF signaling. The experiment in a line: VEGF signaling and VEGF receptor levels in HUVECs (immunoblotting). The format is cell-based, human. On the procedure: FIG. 6A: HUVECs were grown in complete media were in the absence or presence of Dand5 or IWR1 for up to 24 hours. Protein extracts were analyzed by immunoblotting (representative image of n=3 experiments). FIG. 6C: HUVECs were grown in low serum media for 16 h in the absence or presence of 60 ng/mL of Dand5. VEGF signaling was induced by addition of 25 ng/mL of rhVEGF for up to 60 minutes. Protein extracts were analyzed by immunoblotting (representative image of n=3). FIG. 6D: Quantification of the mean gray value of phosphorylated proteins normalized to the mean gray value of β-Actin of immunoblots in FIG. 6C (n=3, ns). FIG. 6E: HUVECs were plated in the presence or absence of 60 ng/mL of Dand5. Proteins extracts were analyzed for expression of VEGF receptors (representative image of n=3).
Cells were washed with cold PBS and extracted in Laemmli's buffer, followed by sonication. Samples were run on SDS-PAGE gels and transferred onto nitrocellulose membranes. Membranes were blocked with 5% Bovine Serum Albumin (BSA) and probed with primary antibodies overnight at 4° C.: beta-Catenin (Cell Signaling Technology), phospho-beta-catenin (Cell Signaling Technology), Axin2 (Cell Signaling Technology), beta-Actin (Santa Cruz Technologies). HRP-conjugated secondary antibodies (Vector Laboratories) were used to detect primary antibodies.
HUVECs were starved overnight in the presence or absence of DAND5, followed by VEGF stimulation for up to 60 minutes. […] Likewise, VEGFR2 and VEGFR1 levels were unaffected upon HUVECs exposure to DAND5 for 0.5-24 h (FIG. 6 E, F).
In general terms: In western blotting, separated proteins are transferred to a membrane and probed.

Data set [1] concerns human pluripotent stem cells / stem cell-derived human cones. Conditions: cited from earlier work.

B1: DAND5: human recombinant DAND5/COCO biologically active fragment produced in E. coli, predicted 18.2 kDa monomer, R&D systems 3047-CC-050 (protein)
chain: MRPEPQSPRPQSWAAANQTWALGPGALPPLVPASALGSWKAFLGLQKARQLGMGRLQRGQDEVAAVTLPLNPQEVIQGMCKAVPFVQVFSRPGCSAIRLRNHLCFGHCSSLYIPGSDPTPLVLCNSCMPARKRWAPVVLWCLTGSSASRRRVKISTMLIEGCHCSPKA
As to B1, in the data set on mouse choroidal explants, the “growth of choroidal explants” value was “inhibited the growth of P5 mouse choroidal explants exposed to serum and VEGF”. For the same molecule, in the data set with HUVECs, the “proportion of cleaved caspase 3 (CC3)-positive cells” value is given as “did not show differences in the proportion of cleaved caspase 3 (CC3)-positive cells”. In addition, the “VEGFR2 phosphorylation at Y1175” value with VEGF signaling (HUVECs cultured in the presence of DAND5) is “unaffected”. The “VEGFR2 and VEGFR1 levels” value in the data set on VEGF signaling (HUVECs exposed for 0.5-24 h) is “unaffected”. For the same molecule, in the data set on VEGF signaling (HUVECs starved overnight with DAND5, VEGF stimulation up to 60 minutes), the “VEGF-induced phosphorylation of VEGF downstream effectors” value is listed as “no significant decrease in VEGF-induced phosphorylation of VEGF downstream effectors”. The “cone photoreceptor differentiation and maintenance” value in data set [1] (recent study (16)) is “potent inducer of cone photoreceptor differentiation and maintenance”. Further, the “differentiation of human pluripotent stem cells into cone photoreceptors” value in data set [1] (reference (16)) is on record as “can promote the differentiation of human pluripotent stem cells into cone photoreceptors”.

The record behind these values is patent publication US20220265772A1, “USES OF DAN FAMILY BMP ANTAGONISTS FOR INHIBITING OCULAR NEOVASCULARIZATION AND TREATING OCULAR CONDITIONS” (9636137 Canada Inc., priority 2019, published 2022).
